The data set can be described thus: label from the status in PepcDB records.
Consider “MEKPGGFWIPKKSNKESSWEELAFAEDDAAGSLWPPRSYTCSFCRREFKSAQALGGHMNVHRRDRARLKQADDQYLFPKSSSSPEYPSHKDSDNIHETSCYTLVFNTKPNYFKTQHSCVIDLSSSSSLPYLTPSRVSSGLPGKQHTSSSPPSFVVEPSKNSKYIPSSSPWSCPSTVVEQKSCDLYEIPAMEGEKKRKTESDVPKIGHKAKLSLGNTTDLSVSMNLVIHQSFPITAHGSDEEIGRVDIRKRRRRHESPSQQSIFISSLSCKSDIITRNEESKHKGDRFEDLDLELRLGTDPPKGI”, for which the protein production result is listed as “failed”. Turning to “MEKQNLKNTEVNLIYGVDDDLDLPKKVLFGLQHIFAAFGGIIVVPLVIATSLGFDSKVTTALISASILGSGLATIIQAKGVGKVGARVACIMGTDFTFVSPAISVGSVLGLPGIIGATILGSLFEVILSFFIKPLMKFFPPLVTGTVVALIGLTLLPVSIDWAAGGAGSANYASLENLAVAMFVLVITLLLNNYGKGMISSASILIGIVVGYIVCIPLGLVDFTPVKEASWLSFPKILEFGVTFDAKAVMAFIPAYFVATIGTVGCLKAIGETSNIDIGDKRVAAGVLSDGVGSALGGLVGSCPNTSFSQNIGIISLTKVASRHVAVMAGILLVILGFLPKVAAIITGIPNPVLGGVGIMMFGTVAAAGIRTLSNIKLTERNLLIIAISMGLGLGVTFRPDVIHNLPEAIRMIFSSGISTGTIAALILNAVLKESPTSMEFENMYDEETKAS”, the protein production entry was “failed”. The value for “MEKTIIAALLMLISLISYAQGLMWTAKAELNMSSMSNVEESKMHPGFYAGIGAGYVIDETRSVRPSLLFTMKGVKQDYKF” was “failed”. On to “MEKVTKMISRMMVRVVTVAFALSLVAVACHEAEARAGGGRSFGSRGTRTYRPPTRTVDPAPASRPQPAPAVPQTFPQQRQGGSFLRSMAGGIVGGLLGGMLFRSLGFAGPGAGGVGLFDILLIGGILYLVYRFVASRRREAAATAGRAPDWSREEPVTPQQYRYGQPAESVPAAGADSGLAHVRQMDGSFSEEQFRQLAQDVFFRVQGAWTRRDLSSAREVLAPEMERALQGDVAELKARGQVNRLENIAVRQVELVEAWQEEGCDFITVRFLANLLDYTTDEEGRVLSGSDREPVKFEEFWTFTRPVGPNPWKLSAIQQA”, for which the protein production entry is on record as “failed”. Consider “MEKYIHSVEDYHRLISYLENNLNYEDSVVNHVIYVIAKTGMRYGEIIGLTNNDTSLDEHYLHTYKRYNTSTWKWTNAKNESSKRYIPIDDKIVAALSNMIKERERINSLLRIKNKEEFLFFHYGLEHGIPSVATVNKALKKILKKLDIEPIITTKGLRHTYGSYLLHNNIDMGVVARILGHKDIQMLIQVYGHTLTEKIDKEFKEVEQIMNRILEHHHHHH”, for which the protein production entry is listed as “failed”. Turning to “MELDDAYANGAYIEGAADYPPRWAASAEDFRNSLQDRARLNLSYGEGDRHKFDLFLPEGTPVGLFVFVHGGYWMAFDKSSWSHLAVGALSKGWAVAMPSYELCPEVRISEITQQISQAVTAAAKEIDGPIVLAGHSAGGHLVARMLDPEVLPEAVGARIRNVVPISPLSDLRPLLRTSMNEKFKMDADAAIAESPVEMQNRYDAKVTVWVGGAERPAFLDQAIWLVEAWDADHVIAFEKHHFNVIEPLADPESDLVAVITA”, the protein production result is listed as “not failed”. For “MELELDDDVFFADISKQLNLLITDEDEQNPISLSSSVSFQGLFRGNYQTSATPYMMYNEQINYNVIRESKGTGVFIPRSSQPRRKHNHHPHQKKQGRFIGSFIPKQQFPHHGHDNNLTTLNNNNQESITFHHASTNPRRTYRDAASLFT” the value was “failed”; for “MELFTEAWAQAYCRKLNESEAYRKAASTWEGSLALAVRPDPKAGFPKGVAVVLDLWHGACRGAKAVEGEAEADFVIEADLATWQEVLEGRLEPLSALMRGLLELKKGTIAALAPYAQAAQELVKVAREVA”, “not failed”.

On to “MELIEVQEGKAKILIPKAESIYDSPVFYNPRMALNRDIVVVLLNILNPKIVLDALSATGIRGIRFALETPAEEVWLNDISEDAYELMKRNVMLNFDGELRESKGRAILKGEKTIVINHDDANRLMAERHRYFHFIDLDPFGSPMEFLDTALRSAKRRGILGVTATDGAPLCGAHPRACLRKYLAVPLRGELCHEVGTRILVGVIARYAAKYDLGIDVILAYYKDHYFRAFVKLKDGARKGDETLEKLGYIYFDDKTGKFELEQGFLPTRPNAYGPVWLGPLKDEKIVSKMVKEAESLSLARKKQALKLLKMIDQELDIPLFYDTHAIGRRLKIETKKVEEIISALREQGYEATRTHFSPTGIKTSAPYEVFIETIKRI”, for which the protein production entry was “not failed”.

On to “MELIRFSISIPSKLLEKFDQIIEEIGYENRSEAIRDLIRDFIIRHEWEVGNEEVAGTITIVYNHDEGDVVKALLDLQHEYLDEIISSLHVHMDEHNCLEVIVVKGEAKKIKMIADKLLSLKGVKHGKLVMTSTGKELV”, for which the protein production entry is listed as “not failed”.

For “MELKMKTRALVIGLGSMGKRRVRNLLALGNIDVFGFDVRADRNEEASSKYQITTFDDVQKAFEDVKPEVVVISTPPQLHMTYANMCFDARVPCFIEASVTDIEEIRELGKKALEASLVIAPSCTMRYFPGPKKVKELLEQNVIGSPLSVNYQTGQYLPDWHPWEDIQDFYVSKRESGGAREIVPFELTWLNDLFSHDVKALASAVAKQTDMNADIDDIYHCLLQYDSGVLLNLTVEVISRPLATREMLILGSKGKIKFSADSNSVSYCNLETDGWVESTWEEGTVESQYINPEEPYINEMKDFVTAALAGDQSLFPNNLQDDVKVLEVLEALEEVDQLKGNKA”, the protein production result is recorded as “failed”. With “MELLLGIVIVVTCWMVVRIIRSSKNQEGYKRWRAGNYASENPYAKEKASGPLSQGLFSKRVRTTGVRRFDDGAIRWCANLLATEESRLREVLDYIPRQYTCFHVRKRSGGFRYISAPAGDFRSMQQTIYHRILLLANIHPAVTGFCPGKSVSDNARVHLGRKNVLKVDLHDFFPSIRSPRVRAAFREMGYSRPIAKVLAELCCLRCCLPQGAPTSPALSNIIAYPMDKKMMALAGEYGLVYTRYADDLTFSGDYLPKDEVLVRIHRIIREEGFTMNVKKTRFLSEHKRKIITGVSVSSGKKMTLPKVKKREIRKNVHYVLTKGLVGHQEHIGSTDPVYLKRLLGSLCYWRSIEPDNRYVSDSITALKRLM”, the protein production result is recorded as “failed”.

Regarding “MELNISESRSRSIRCIVKLGGAAITCKNELEKIHDENLEVVACQLRQAMLEGSAPSKVIGMDWSKRPGSSEISCDVDDIGDQKSSEFSKFVVVHGAGSFGHFQASRSGVHKGGLEKPIVKAGFVATRISVTNLNLEIVRALAREGIPTIGMSPFSCGWSTSKRDVASADLATVAKTIDSGFVPVLHGDAVLDNILGCTILSGDVIIRHLADHLKPEYVVFLTDVLGVYDRPPSPSEPDAVLLKEIAVGEDGSWKVVNPLLEHTDKKVDYSVAAHDTTGGMETKISEAAMIAKLGVDVYIVKAATTHSQRALNGDLRDSVPEDWLGTIIRFSK”, the protein production entry is “failed”. In the case of “MELPAVGEHVFAVESIEKKRIRKGRVEYLVKWRGWSPKYNTWEPEENILDPRLLIAFQNRERQEQLMGYRKRGPKPKPLVVQVPTFARRSNVLTGLQDSSTDNRAKLDLGAQGKGQGHQYELNSKKHHQYQPHSKERAGKPPPPGKSGKYYYQLNSKKHHPYQPDPKMYDLQYQGGHKEAPSPTCPDLGAKSHPPDKWAQGAGAKGYLGAVKPLAGAAGAPGKGSEKGPPNGMMPAPKEAVTGNGIGGKMKIVKNKNKNGRIVIVMSKYMENGMQAVKIKSGEVAEGEARSPSHKKRAADERHPPADRTFKKAAGAEEKKVEAPPKRREEEVSGVSDPQPQDAGSRKLSPTKEAFGEQPLQLTTKPDLLAWDPARNTHPPSHHPHPHPHHHHHHHHHHHHAVGLNLSHVRKRCLSETHGEREPCKKRLTARSISTPTCLGGSPAAERPADLPPAAALPQPEVILLDSDLDEPIDLRCVKTRSEAGEPPSSLQVKPETPASAAVAVAAAAAPTTTAEKPPAEAQDEPAESLSEFKPFFGNIIITDVTANCLTVTFKEYVTV”, the protein production entry is “failed”.

With “MELREVAAVSGRGGLFKILKPTKNGVILEAIDPSKKRFVAGANERVSILNEISIYTTDKDGSVPLESVLHKIHAKYGADTKITGKSSNDELGNFLSSILPEYDREKVYHSDIKKLANWYAILQANFPELLVAKKEAAPKTEAKPAEAKEEKVKAVKEEKAEAPAPAAKKAAAKKVKEVSEEATEKPAAKKAAAKKTAKAKGE”, the protein production result is on record as “failed”.

As to “MELSSSESLGFSKILKERVKVKPMNKYAILAVLLWSTVASAFKLTLSRLDTISMLFYSSLTSTVIFLLANLKDIKTFSIKANLNSVFFGFINPFLYYLVLFSAYSILPAQEAQALNYTWPIILVIFSSAFLGQRLSERDFLGVIIGFLGALVVGTRGNLSSLHFANPMGDLLALCSAIIWAIYWILNLRDPRKAEVKMMWNFIFGFLYISILGVIEGIKFDPYGVLGAIYVGTFEMGLTFLLWLKALESEEAGKVASLIYLTPVLSLLFISIVVGEKILGSTIVGLALILLGIALSRR”, the protein production result is “failed”. As to “MELTALDKLEIMELAARFEMSLDKEDVENYLATFASDGALQGFWGIAKGKEELRQGFYAMLDTFARGKRHCSSNAIIQGNYDEATMESYLTVVNREDLNRAGSAFVKDQVRKINGKWYLILRQIEVDPSLPLLQQSQQAGANA”, the protein production result is recorded as “not failed”.

For the sequence “MELTQTHLLPVPLQTAWDALNDPAVLQRCIPGCESVTAATEHAYDIAMTAAVGPVKARFKGRMELADIVPPRSYTLHFDGQGGAAGFGKGTAQVQLAPEGPTVTRLSYTAHAQVGGKLAQIGSRLIDGAARKLADEFFQRFASEFGPAGGTGPLDAAPADQAIPDLASGELAAHGAPRTPLISPAVQPRNPWPWIIVALVAIVAAYLFLHHGA”, the protein production entry is reported as “failed”. For “MEMINVFVYGTLRRGGGNHQLIAEYVQSVHEATVKGMLFHLPYGYPAMVDGRGTVRGEILELSNPETALTILDELEGYHGPGQSNEYERITVTAVTADGNKYICYTYVYPEEQREWLEQNAQPIFGGDWMAFLHSKDEVMYFAYGSCMSERDFRRTVPHFEVMGRAVLDDYRLAFTRYSSGRQGGVADIVPSPGDRVEGVLYKISSRYVKDLDWREGVPAGVYRREYIDVQHNGQLVSALTYVVVEKQLDEIAPSESYASIILDEGTSLLSPQYIEQVRRHIETLQKKGR” the value was “failed”; for “MEMKKMKKMDKMELLKQIMAVDFTIIDLSLYLNTHPMDKEAIAKHNAFVAQSHMLKGQYQKYYGMLTATNSCSPYPWQWIKEPWPWEYDANFRL”, “failed”; for “MEMYFKRMKDEWTGLVEQADPPIRAKAAEIAVAHAHYLSIEFYRIVRIDPHAEEFLSNEQVERQLKSAMERWIINVLSAQVDDVERLIQIQHTVAEVHARIGIPVEIVEMGFRVLKKILYPVIFSSDYSAAEKLQVYHFSINSIDIAMEVMTRAFTFSDSSASKELEHHHHHH”, “not failed”. As to “MENDSSIQWEHSHDFGLDNKLHENKVKTVFWLTTVIMVLEIGAGTWSGSMALLADGWHMGTHSAAFLIAIFAYSYAKKHANNKDFSFGTGKVNSLGGFASAIALAIVALMMIVESVQRLLEPQSIHFNEAIVVAIIGLVVNVASVFILHDDHHHHGEHHHDHDHNMKAAYFHVLADTLTSLLAIVALLIGKYVGLIWMDPLMGIVGAIVILRWSYGLIKDSSNVLLDKSVKKSTLEQISKALSKKNTVINDIHVWTIATAHQAAILKVTSAQPLNSDEYEGILREILPQLSHISIEIRHDYSL”, the protein production entry is reported as “failed”. For the sequence “MENIEYVFEDVVRIYDTDAQGIAHYAAYYRFFTNTIEKFIKEKVGIPYPIVNENLWFVIAESHAIYHRPVKLGDKLTVLLNPKILSNKTIKFEFKVLKDGELTTEGYVIQIAINPKIWKSTEMPKEIMDKLSIK”, the protein production result is listed as “not failed”.

The values above are taken from a protein production outcome set (Wang et al. 2014).
